Assay results as given in the RNAGym collection of RNA variant scans (doi:10.1073/pnas.2313332121).
Fewer inactive variants are shown than the library holds.

B1: TPR 5TU (parent)
chain: GGAUCUUCUCGAUCUAACAAAAAAGACAAAUCUGCCACAAAGCUUGAGAGCAUCUUCGGAUGCAGAGGCGGCAGCCUUCGGUGGCGCGAUAGCGCCAACGUUCUCAACUAUGACACGCAAAACGCGUGCUCCGUUGAAUGGAGUUUAUCAUG

Variants of: B1
Assay: polymerase ribozyme fitness, log enrichment relative to wild type (log ratio); higher = more active; in vitro selection for triplet polymerase activity
Summary of the method: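 Fitness compares each genotype's enrichment to that of the wild type on a logarithmic scale, averaging replicates with inverse-variance weights. The logarithm is base 2. Enrichment came from Illumina sequencing of input and output libraries after one triplicate round of in vitro selection, which included frozen incubation at −7 °C, of PCR-built, transcribed mutant libraries of each subunit of a heterodimeric triplet polymerase ribozyme. Only genotypes with ≥10 input reads and ≥1 read per output were kept.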

GGAUCUUCUCGAUCUAACAAAAAAGACAAAUCUGCCACUAAGCUUGAGAGCAUCUUCGGAUGCAGAGGCGGCAGCCUUCGGUGGCGCGAUCGCGCCAACGUUCUCAACUAUGACACGCAAAACGCGUGCUCCGUUGAAUGCAGUUUAGCAUG [A39U A91C G141C U148G] and GGAUCUUCUCGAUCUAACAAAAAAGACAAAUCUGCCACUAAGCUUGAGAGCAUCUUCGGAUGCAGCGACGGCAGCCUUCGGUGGCGCGAUAGCGCCAACGUUCUCAAUUAUGACACGCAAUACGCGUGCUCCGAUGAAUGGAUUUUAUCAUG [A39U A66C G68A C108U A121U U134A G143U] cannot be ordered by “polymerase ribozyme fitness (log ratio)” value: at most -4.2 for the first, at most -4.2 for the second.

GGAUCUUCUCGAUCUAACAAAAAAGACAAAUCUGCCACUAAGAUUGAGAGCAUCUUCGGAUGCAGAGGCGGCAGGCUUCGGUGGCGUGAUAGCGCCAACGUUCUCAACUAUGACACGUAAAACGCGUGCUCCGUUGAAUGGAGUUUAUCAUG [A39U C43A C75G C87U C118U] and GGAUCUUCUCGAUCUAACAAAAAAGACAAAUCUGCCACUAAGCUUGAGAGCAUCUUCGGUUGCAGAGGCGGCAGCCUUCGAUGGAGCGAUAGUGCCAACGUUCUCAACUAUGACACGCAAAACGCGUGCUCCGUUGAAUGGAGUUUAUCAUG [A39U A60U G81A C85A C93U] cannot be ordered by “polymerase ribozyme fitness (log ratio)” value: at most -4.2 for the first, at most -4.2 for the second.

First: GGAUCUUCUCGAUCUAACAAAAAAGACAAAUCUGCCACUAAGCUUGAGAGCAUCUUCGGAUGCAGAGGCGGCAGCCUUCGGUGGCGCGAUAGCGCCAACGUUCUCAACUAUGACACGCAAAGCGCGUGCUCCGUUGAAUGGAGUGUAUCAUG [A39U A122G U145G]
Second: GGAUCUUCUCGAUCUAACAAAAAAGACAAAUCUGCCACUAAGUUUGAGAGCAUCUUCGGAUGCAGAGGCGGCAGCCUUCGGUGGCGCGAUAGCGCCAACGUUCUCAACUAGGACACGCAAAACGCGUGCUCCGUUGAAUGGAGUUUAUCAUG [A39U C43U U111G]
The “polymerase ribozyme fitness (log ratio)” value of the first is higher: -2.48 for the first, at most -4.2 for the second.

First: GGAUCUUCUCGAUCUAACAAAAAAGACAAAUCUGCCACUAAGCUUGAGAGCAUCUUCGGGUGCAGAGGCGGCAGCCUUCGGUGGCGCGAUAGCGCCAACGUUCUCAACUAUGACACGCAAAACGCGUGCUCCGUUGUAUGGAGUUUAUCAUG [A39U A60G A137U]
Second: GGAUCUUCUCGAUCUAACAAAAAAGACAAAUCUGCCACUAAGCUUGAGAGCAUCUUCGGAUGCUGAGGCGGCAGCCUUCGGUGGCGGGAUAGCGCCAACGUUCUCAACUAUGACACGCAAAACGCGUGCUCCGUUGAAUGGAGUUUAUCAUG [A39U A64U C87G]
The “polymerase ribozyme fitness (log ratio)” value of the first is higher: -4.19 for the first, at most -4.2 for the second.

Going from GGAUCUUCUCGAUCUAACAAAAAAGACAAAUCUGCCACUAAGCUUGAGAGCAUUUUCGGAUGCAGAGGCGGCAGCCUUCGGUGGCGCGAUAGCGCAAACGUUCUCAACUAUGACACGCAAAACGCGUGCUCCGUUGAAUGGAGUUUAUCAUG [A39U C54U C96A] to GGAUCUUCUCGAUCUAACAAAAAAGACAAAUCUGCCACUAAGCUUGAGAGCAUCUUCGGAUGCAGAGGCGGCAGCCUUCGGUGGCGCGAUAGCGCCAACGUUCUCAGCUAUGACACGCAAAACGCGUGCUCCGUUGAAUCGAGUUUAUCAUG [A39U A107G G140C], the “polymerase ribozyme fitness (log ratio)” value falls from -2.72 to at most -4.2.

GGAUCUUCUCGAUCUAACAAAAAAGACAAAUCUGCCACUAAGCUUGAGAGCAUCUUCGGAUGCGGAGGCGGCAGCCUUCGGUGGCACGGUAGCGCCAACGUUCUCAACUAUGACACGCAAAACGCGUGCUCCGUAGAAUGGAGUUUAUCAUG [A39U A64G G86A A89G U135A] and GGAUCUUCUCGAUCUAACAAAAAAGACAAAUCUGCCACUAAGCUUGAGAGCAUUGUCGGAUGCAGAGGCGGCAGCCUUCGGUGGCGCGAUAGUGCCAACGUUUUCAACUAUGACACGCAAAACGCGUGCUCCGUUGAAUGGAGUUUAUCAUG [A39U C54U U55G C93U C103U] cannot be ordered by “polymerase ribozyme fitness (log ratio)” value: at most -4.2 for the first, at most -4.2 for the second.

Going from GGAUCUUCUCGAUCUAACAAAAAAGACAAAUCUGCCACUAAGCUUGAGAGGAUCGUCGGAGGCAGAGGCGGCAGCCUUCGGUGGUGCGAUAGCGCCAAUGUUCUCAACUAUGACACGCAAAACGCGUGCUCCGUUGAAUGGAGUUUAUCAUG [A39U C51G U55G U61G C85U C99U] to GGAUCUUCUCGAUCUAACAAAAAAGACAAAUCUGCCACUAAGCUUGAGAGCAUCUUCGGAUGCAGAGGCGGCUGCCUUCGGUGGCGCGAUAGCGCCAACGUUCUCAACUAUGACACGCAAAACGCGUGCUCCGUUGAAUGGAGUUUAUCAUG [A39U A73U], the “polymerase ribozyme fitness (log ratio)” value rises from at most -4.2 to -4.11.

First: GGAUCUUCUCGAUCUAACAAAAAAGACAAAUCUGCCACUAAGCUUGAGAGUAUCUUCGGAGGCAGAGGCGGCAGCCUUCGGUGGCGCGUUAGCGCCAACGUUCUCAACUAUGACACGCAAAACGCGUGCUCCGUUGAAUGGAGUUUAUCAUG [A39U C51U U61G A89U]
Second: GGAUCUUCUCGAUCUAACAAAAAAGACAAAUCUGCCACUAAGCUUGAGAGCAUCUUCGGAUGCAGAGGCGGCAGCCUUCGGUGGCGCGGUAGCGCCAACGUUCUCAACUAUGACACGCAAAACGCUUGCUCCGUUGAAUGGAGUUUAUCAUG [A39U A89G G126U]
The “polymerase ribozyme fitness (log ratio)” value of the first is lower: at most -4.2 for the first, -3.58 for the second.

Compared with GGAUCUUCUCGAUCUAACAAAAAAGACAAAUCUGCCACUAAGCUUGAGAGUAUUUUCGGGUGCAGAGGCGGCAGCCUUCGGGGGCGCGAUAGCGCCACCGUUCUCAACUAUGACACGCAAAACGCGUGCUCCGUUGAAUGGAGUUUAUCAUG [A39U C51U C54U A60G U82G A98C], GGAUCUUCUCGAUCUAACAAAAAAGACAAAUCUGCCACUAAGCUUGAGAGCAUUUUGGGAAGCAGAGGCGGCAGCCUUCGGUGGCGCGAUAGCGGCAACGUUCUCAACUAUGACACGCAAAACGGGUGCUCCGUUGAAUGGAGUUUAUCAUG [A39U C54U C57G U61A C95G C125G] is lower in “polymerase ribozyme fitness (log ratio)” value: -3.88 for the first, at most -4.2 for the second.

In the case of GGAUCUUCUCGAUCUAACAAAAAAGACAAAUCUGCCACUAAGUUUGAGAGCAUCUUCGGAUGCAGAGGCGGCAGCCUUCGGUGGUGCGAUAGCGCCAACGUUCUCAACUAUGACACUCAAAACGCCUGCUCGGUUGAAUGGAGUUUAUCAUG [A39U C43U C85U G117U G126C C132G], the “polymerase ribozyme fitness (log ratio)” value is reported as at most -4.2.
